Results published in US20260193317A1, “COMBINATION THERAPY WITH ACTRIIB RECEPTOR VARIANTS AND GLP-1 AGONISTS” (35PHARMA Inc., priority 2023, published 2026).
Blank lines part the entries; values can stand above or below the molecule they belong to.

How the values were obtained:
[1] = SEC-HPLC monomer and HMW content of purified fusion proteins; format: physicochemical; conditions: after Protein A purification
From the text: Given that protein aggregation can be indicative of reduced conformational stability and decreased activity, Size-Exclusion Chromatography-High Performance Liquid Chromatography (SEC-HPLC) was used to determine the purity of each ActRIIB-ECD construct. This method measured the percentage of intact monomeric species as well as the presence of aggregates and/or degradation products.
All proteins expressed efficiently in CHO and/or 293 cells and purification efficiency of each using Protein A affinity chromatography was similar.

[2] = tested on: diet-induced obese (DIO) mice; test: Body composition and metabolism in diet-induced obese (DIO) mice; format: in vivo; conditions: 3 weeks s.c., P75, P1229 25 mg/kg twice weekly, P1373 5, 20, 50 mg/kg twice weekly, P1307 20 mg/kg weekly
Protocol: Experiments were performed to assess the effects of P1229 on body composition and metabolism in diet-induced obese (DIO) mice. DIO mice were purchased from Jackson Laboratories (#380050). Briefly, mice were fed a high-fat diet (HFD, 60% kcal from fat) from 6 weeks of age until 22 weeks of age (total of 16 weeks on the HFD). […] After 3 weeks of treatments, some animals were sacrificed and scanned by EchoMRI […] (FIGS. 11A-F), while others were sacrificed for tissue collection and RNA analysis. Animals were maintained on the HFD throughout the acclimatization and treatment periods. The murine version of bimagrumab used for these experiments comprises the heavy chain amino acid sequence of SEQ ID NO: 376 and the light chain sequence of SEQ ID NO: 377.

[3] = Skeletal muscle mass and Mss51 expression in lean mice; format: in vivo; conditions: 25 mg/kg twice weekly, seven days
Protocol: The effects of P1229 on body composition and metabolism in lean mice were further assessed.
Additional assays were performed to assess the relative expression level of Mss51, a skeletal muscle-specific gene. Mss51 is a key target of myostatin signaling, with a role in fatty acid oxidation, glycolysis, and oxidative phosphorylation.

[4] = Single-injection body weight gain in wild-type mice; format: in vivo; conditions: single 25 mg/kg subcutaneous injection, after 4 days, vs vehicle
Protocol: To investigate the target engagement of exemplary ActRIIB-ECD polypeptide constructs in vivo, mice (n=6/group) were injected with given agents (25 mg/kg, subcutaneous injection), and sacrificed after 4 days to assess body weight gain.

BMP-9 [5] = molecular target: T1, BMP-9 (UniProt Q9UK05 320-429); test: cell-based or functional assay
T1 sequence (looked up): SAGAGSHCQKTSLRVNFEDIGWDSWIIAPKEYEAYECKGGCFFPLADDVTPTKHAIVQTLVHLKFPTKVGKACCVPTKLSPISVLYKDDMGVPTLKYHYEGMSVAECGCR

BMP-10 = molecular target: T2, BMP-10 (UniProt O95393 317-424); test: cell-based or functional assay
T2 sequence (looked up): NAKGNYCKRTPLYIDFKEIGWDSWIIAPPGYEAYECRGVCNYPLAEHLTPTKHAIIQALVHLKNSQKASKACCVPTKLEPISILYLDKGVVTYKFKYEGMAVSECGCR

GDF-11 = GDF-11 (UniProt O95390 299-407); test: cell-based or functional assay
activin B = molecular target: T3, activin B (UniProt P09529 293-407); test: cell-based or functional assay
T3 sequence (looked up): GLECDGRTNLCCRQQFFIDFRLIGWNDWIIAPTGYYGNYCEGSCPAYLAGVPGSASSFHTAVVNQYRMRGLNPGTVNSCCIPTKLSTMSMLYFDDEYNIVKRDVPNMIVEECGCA

[6] = molecular target: T4, recombinant human activin A (human, UniProt P08476 311-426); test: cell-based or functional assay
T4 sequence (looked up): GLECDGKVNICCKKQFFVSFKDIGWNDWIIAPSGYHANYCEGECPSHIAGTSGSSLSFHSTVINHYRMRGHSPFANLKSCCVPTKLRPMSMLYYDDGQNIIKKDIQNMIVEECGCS

GDF-8 = GDF-8 (UniProt O14793 267-375); test: cell-based or functional assay
BMP-9 [7] = molecular target: T5, BMP-9 (Homo sapiens, UniProt Q9UK05); test: Small-scale BMP-9 ELISA with CHO supernatants; format: binding; conditions: BMP-9 10 ng/mL
T5 sequence (Q9UK05 320-429): T1 sequence (looked up)
Protocol: Small-scale testing of ActRIIB-ECD fusion proteins. Additional investigation of a series of exemplary agents was performed using proteins expressed in CHO cells. Briefly, DNA encoding the ActRIIB-ECD-Fc fusion constructs was transfected in cells seeded in 12-well plates in a final volume of 1 ml. After 7 days, the supernatant was harvested, clarified, and the amount of expressed protein in each well was quantified using standard methods. The potency of each agent for inhibition of activin A, BMP-9 and BMP-10 was determined in three separate assays.
The next day, the plate was washed three times. […] Expressed proteins in the supernatants were diluted 1 in 2 in assay diluent (0.5% BSA, 0.05% tween-20 in PBS) and 100 μl was added to the 96-well plate in technical duplicates. After a 1.5-hour incubation at RT, the plate was washed three times. […] In this assay, a loss of signal indicates less binding of the exemplary agent to BMP-9. Results are expressed as a % of the signal obtained with wild-type ActRIIB-Fc (P75).

TGFβ superfamily ligands = test: Neutralization profile across TGFβ superfamily ligands (HEK293 and HepG2 reporter assays, summary); format: cell-based, human
Protocol: Potency testing by neutralization on cell-based assays. Characterization of the activin A, activin B, GDF-8, and GDF-11 inhibition potency (IC50) of the fusion proteins was performed using a cell-based reporter assay. TGFβ-reporter HEK293 cells were obtained from InvivoGen (San Diego, CA, cat. no. hkb-tgfb) and were maintained following the manufacturer's instructions. Briefly, cells were grown in high-glucose DMEM, containing 10% heat-inactivated FBS, 30 μg/mL blasticidin, 250 μg/mL hygromycin B, and 100 μg/mL zeocin (hereafter, “growth medium”). Once the cells reached 70-80% confluence, they were detached in growth medium by gently tapping on the flask. For all assays, cells were seeded in 96-well plates at a density of 20,000 cells per well in growth medium. Cells were left to attach for 10 minutes at room temperature (RT) prior to being transferred to a 37° C. incubator (5% CO2) overnight. The next day, treatments were prepared by combining the appropriate concentration of agent with activin A, activin B, GDF-8, or GDF-11 for 30 min at RT (shaking at 150 rpm). Treatments were conducted in high-glucose DMEM (serum-free and with no selection agents), and the final concentration of cytokine (ligand) was 0.3 nM. Growth medium was removed from the culture plates, and cells were treated with the appropriate mixes of fusion protein and cytokine. Treatment duration was for 18-22 h at 37° C. (5% CO2). All treatments were performed in technical duplicates and at least one or two independent experiments were conducted for each cytokine. At the end of the treatment period, supernatants were transferred to a new plate, and centrifuged at 300 RPM for 3 min. Forty microlitres of supernatant from each condition was transferred to a new plate, into which 180 μL of Quanti-Blue reagent (InvivoGen, cat. no. rep-qbs) was added. Quanti-Blue reagent was prepared following the manufacturer's instructions. Samples were incubated for 45 min at 37° C. At the end of the incubation, absorbance was read at 650 nm. The data were plotted in GraphPad Prism, which was used to calculate IC50 values as a non-linear regression.
Characterization of the BMP-9 and BMP-10 inhibition potency (IC50) of the fusion proteins was performed using a second cell-based reporter assay. Human hepatic HepG2 cells were transfected with a SEAP-encoding plasmid, in which SEAP expression is under the control of the murine Id1 promoter. A stable pool was generated from this transfection. Cells were grown in EMEM, containing 10% heat-inactivated FBS and 200 μg/mL zeocin (hereafter, “HepG2 growth medium”). […] For all assays, cells were seeded in 96-well plates at a confluence of 100,000 cells per well in HepG2 growth medium. Cells were left to attach for 10 minutes at RT prior to being transferred to a 37° C. incubator (5% CO2) overnight. The next day, treatments were prepared in EMEM (2.5% heat-inactivated FBS and with no selection agents) by combining the appropriate concentration of agent with BMP-9 or BMP-10 for 30 min at RT (shaking at 150 rpm). Treatments were conducted in EMEM (2.5% heat-inactivated FBS and with no selection agents), and the final concentration of BMP-9 and BMP-10 was 2 ng/mL and 40 ng/mL, respectively. HepG2 growth medium was removed from the culture plates, and cells were treated with the appropriate mixes of fusion protein and cytokine. Treatment duration was for 20-24 h at 37° C. (5% CO2). […]

Chain of GDF-11 (O95390 299-407 limits assumed): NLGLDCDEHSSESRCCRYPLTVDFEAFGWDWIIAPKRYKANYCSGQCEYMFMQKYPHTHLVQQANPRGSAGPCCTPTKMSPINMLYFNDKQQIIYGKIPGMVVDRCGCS

Molecule: P75: human wild type ActRIIB-ECD linked to human IgG1 Fc domain by a triple glycine linker; SEQ ID NO: 171; benchmark [reference compound]
- high molecular weight (HMW) content (SEC-HPLC) [1]: 16%
- monomer content (SEC-HPLC) [1]: 84%
- fat mass and lean mass (EchoMRI) [2]: promoted lean mass gain but less fat loss
- tibialis anterior and gastrocnemius weight [3]: significantly increased
- body weight gain [4]: statistically significant body weight gain

- BMP-9 IC50; BMP-reporter HepG2 cells (BMP-9 [5]): > 1000 nM
- BMP-10 IC50; BMP-reporter HepG2 cells (BMP-10): > 100 nM
- GDF-11 IC50; TGFβ-reporter HEK293 cells (GDF-11): 0.39 nM
- Activin B IC50; TGFβ-reporter HEK293 cells (activin B): 2 nM
- Activin A IC50; TGFβ-reporter HEK293 cells [6]: 0.53 nM
- GDF-8 IC50; TGFβ-reporter HEK293 cells (GDF-8): 0.33 nM
B1: P1375 (Fc fusion)
chain: ETRECIYYNANWELERTNQSGLERCEGEQDKRWHCYASWRNSSGTIELVKKGCWLDDFNCYDRQECVATEENPQVYFCCCEGNFCNERFTHLPEAGGPEVTYEPPPTGGGGSGGGGSGGGGSGGGGTHTCPPCPAPELLGGPSVFLFPPKPKDTLYITREPEVTCVVVDVSHEDPEVKFNWYVDGVEVHNAKTKPREEQYNSTYRVVSVLTVLHQDWLNGKEYKCKVSNKALPAPIEKTISKAKGQPREPQVYTLPPSRDELTKNQVSLTCLVKGFYPSDIAVEWESNGQPENNYKTTPPVLDSDGSFFLYSKLTVDKSRWQQGNVFSCSVMHEALHNHYTQKSLSLSPG

- BMP-9 binding, ELISA signal relative to P75 (BMP-9 [7]): near-undetectable binding to BMP-9
B2: P1375: hActRIIB L33W, 19 aa linker, IgG1 YTE-DL Fc; SEQ ID 234 (protein)
chain: B1 chain
- high molecular weight (HMW) content (SEC-HPLC) [1]: 0%
- monomer content (SEC-HPLC) [1]: 99%
- impact of modifications in the Fc sequence on activin A, activin B, GDF-8, and GDF-11 potency (TGFβ superfamily ligands; all ligands): comparable to P1373
- impact of modifications in the Fc sequence on BMP-9 and BMP-10 potency (TGFβ superfamily ligands; both ligands): comparable to P1373
